Test results: the supplement of paper PMC9170038

Test system: MS2 coat protein
Test: apparent KD of MS2 coat protein; designed switch direction (-1 OFF switch, 1 ON switch): -1; higher = weaker reporter binding
Method in brief: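 Stalled E. coli RNA polymerase transcribed designed RNA switches on Illumina chips, which were then titrated with SNAP-549-labelled MS2 coat protein, doubling from 0.7 or 1.5 nM to 3 µM. Steps lasted from 0.8–1.5 h at the lowest concentration to 10–20 min at the highest. The apparent KD is each design's median over clusters of curve-fitted normalised fluorescence.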

[1] = Eterna round: R95, input ligand: microRNA oligo, concentration not stated
[2] = Eterna round: R95, input ligand: FMN 200 uM
[3] = Eterna round: R95, input ligand: none
[4] = input ligand: microRNA oligo, concentration not stated

Sequence	apparent KD of MS2 coat protein [1] [nM]	apparent KD of MS2 coat protein [2] [nM]	apparent KD of MS2 coat protein [3] [nM]	apparent KD of MS2 coat protein (input ligand: FMN 200 uM) [nM]	apparent KD of MS2 coat protein [4] [nM]	apparent KD of MS2 coat protein (input ligand: none) [nM]
AAAAUGUGAGGAUAUCAGGUGUGCUAGCGAACUGGUACAUCUGAGAAGGCACAUGAGGAUCACCCAUGUUCCUU [Mat - Exclusion 4 - Mod of JL - D51] (puzzle: Exclusion 4)	16.2	–	–	–	–	–
CCGGAAAUGCAGGAUAUCGUAUCGGAUACGAUACGAGAAGGGUAUACAUGAGGAUCACCCAUGUGUCCUGCCGG [Fiskers Ex 6 - 54] (puzzle: Exclusion 6)	39.8	–	–	–	–	–
UGUGCGUAUGUGAGGAUAUGCUGGUCCUUGGAUCAGCAGAAGGCACAUGAGGAUCACCCAUGUGGUGUCGUACC [salish99_Bmod_Ex4_002] (puzzle: Brourd's mod of Exclusion 4)	243	–	–	–	–	–
AGCAUGCUAGGAUAUACGGGACAUUAGGGUUCGUUGUGUGGACAUGAGGAUCACCCAUGUAGAAGGAGCGUGCA [Mat - Exclusion 2 - Mod of Hyphema - D91] (puzzle: Exclusion 2)	73.1	–	–	–	–	–
UAUAAUACAUAGGAUAUCGAAAUAAUCAUUUAACGAGAAGGAUGAACAUGAGGAUCACCCAUGUGGUAUCAUGG [Mat - Exclusion 6 - JL Mod - D11] (puzzle: Exclusion 6)	328	379	319	–	–	–
AAUGUUUGAUACCUUUAAUACAUGAGGAUCACCCAUGUUAUCGAGGAUAUGUAGAAGAGAUGAGAACAGAAGGCGAAGUAAGAG [JR_ExcNG3_Sub097] (Eterna round: R96, puzzle: Exclusion NG 3)	–	–	–	29.5	10.5	15.1
AAUACAAGCUAUUGAUCCCACAUGAGGAUCACCCAUGUUCCUGGCCGUGAGGCUAGGUAAACAAUAGCUCGUCUUAU [Sensor-V1 #42] (Eterna round: R97, puzzle: Sensor, turn-off variant 1)	–	–	–	91.2	–	99.8
UACAUGAGGAUCACCCAUGUUUUGUCGUGUAUGGUAUUUAUCUAGGAUAUCAUUUGAUUUAUUUAUGAGAAGGAGAAUAUUAAU [JMF's solution 100] (Eterna round: R96, puzzle: Exclusion NG 3)	–	–	–	34.3	28.1	29.8
AAAGUCCUAGGAGGAUAUCACCUGCCUAGCACAUGAGAAGGCCUAGGAGACAUGAGGAUCACCCAUGUGUCCUUAGUCGAAAAU [Ensobedi] (Eterna round: R96, puzzle: Exclusion NG 1)	–	–	–	19.5	9.59	13.2
ACAAGCUUUUUGCAAUUUAGUUUUGUUGCUUCGUAGGUAACAUGAGGAUCACCCAUGUAAGAGUGAUGUCGUCUUAU [JR_SV3TOV2_Sub084] (puzzle: Sensor v3, turn-off variant 2)	141	520	609	–	–	–
GGGCUGUCAGGAUAUGGGCCCGGGCCCGAAAGGGCCCGGGCCCAGAAGGGACAUGAGGAUCACCCAUGUGGCCC [-51.3, -50.3 kcal, A 22%] (Eterna round: R97, puzzle: Exclusion 4)	–	–	–	43	–	37.7
UAGGUGUGAGGAUAUGGUAAAGAAAAGAUGAUGAAAGAACUCCAGAAGGCACAUGAGGAUCACCCAUGUAGAUG [Mat - Exclusion 4 - Mod of JL - D32] (puzzle: Exclusion 4)	28.7	–	–	–	–	–
ACUAAACAUGUAGGAUAUGCGUGGCGAAGCUAUGCAGAAGGACAUGAGGAUCACCCAUGUUUUAGCGUCUGCGUACAGAUGCGU [JL ENG1 1.44] (Eterna round: R96, puzzle: Exclusion NG 1)	–	–	–	200	17.5	22.7
GGUAGAGUGGUAGGAUAUCCGUCUGUUUCAGUCGGAGAAGGACCACAGUCACUGGGUCCAAAUAUGGGUGACCAUGUAUCUACC [pwkr exNG1 F6.3] (Eterna round: R96, puzzle: Exclusion NG 1)	–	–	–	622	358	392
GCACGGAGUGUAGGAUAUCUGUGCGAUUAGCUCAGAGAAGGACACAUGAGGAUCACCCAUGUGUAACUCAAUACUCAUCCGUGC [Eli exng1 - 070] (Eterna round: R96, puzzle: Exclusion NG 1)	–	–	–	8.06	9.18	13.9
GCUGGUGUGCAGGAUAUUUAAUUGCAAAUAAAUAAAGAAGGGCAUACAUGAGGAUCACCCAUGUCGUCGUUGCG [Eternabot (L1) Solution 98] (Eterna round: R97, puzzle: Exclusion 6)	–	–	–	39.2	–	32.7
UUGCCACAUGAGGAUCACCCAUGUGAGGAUAUGGCCCGCCCGGCGUGUGCUGGUUCUGUCAGAAGGCGCGUGGG [salish99_ex1_r4_030] (Eterna round: R97, puzzle: Exclusion 1)	–	–	–	73	–	33.1

Sequence	apparent KD of MS2 coat protein [1] [nM]	apparent KD of MS2 coat protein [2] [nM]	apparent KD of MS2 coat protein [3] [nM]	apparent KD of MS2 coat protein (input ligand: FMN 200 uM) [nM]	apparent KD of MS2 coat protein [4] [nM]	apparent KD of MS2 coat protein (input ligand: none) [nM]
GCACGGAGUGUAGGAUAUUAGUGCGAUUAGCACUGAGAAGGACAUGAGGAUCACCCAUGUUCCUCAAUAACUCACCUUCCGUGC [Eli exng1 - 043] (Eterna round: R96, puzzle: Exclusion NG 1)	–	–	–	9.73	10.6	11.5
UUAUAGGCAGGAUAUACAUGAGGAUCACCCAUGUAAAUUUUUCGUUUAACUUGAAUGUGUAGAAGGGCCAUAUU [Ex3 #57] (Eterna round: R97, puzzle: Exclusion 3)	–	–	–	22.3	–	21.6
GCCAGAGCAGGAUAUCUAUAUUAUCACAUGAGGAUCACCCAUGUCCAGCGAAAGCUGGAGGGAGAAGGGCUCUGGC [Fiskers Ex 5 - 26] (puzzle: Exclusion 5)	76.7	55.7	74.5	–	–	–
UCCUUGUUGGAGGAUAUGCAUAGCAUCACGCCUGUAGAAGGCCAAACAUGAGGAUCACCCAUGUGCAUGGGAUG [Eternabot (L1) Solution 77] (Eterna round: R97, puzzle: Exclusion 6)	–	–	–	244	–	216
UUUUAACAUGAGGAUCACCCAUGUGAGGAUAUCGAAAUUUAUAUUAAUAUUAUUAAAUCGAGAAGGCACAUUUU [JMF 36] (puzzle: Exclusion 1)	104	–	–	–	–	–
GUGUAGGGAGGAUAUACAUGAGGAUCACCCAUGUGAAUAAGAUAGAAUAAGAUAAAGUGUAGAAGGCUUAGUGU [Excluse me!!! 24 - Jieux - Exclusion 3] (puzzle: Exclusion 3)	53	49.6	67.9	–	–	–
CGUUGUAUAGGAUAUACAUGAGGAUCACCCAUGUGAAAUUAUAGUGAGGAAAUGAAAAGUAGAAGGGUAUGACA [Mod of Mat 7 - Jieux - Exclusion 3] (Eterna round: R97, puzzle: Exclusion 3)	–	–	–	35.5	–	45.3
AAACCCUGAGGAUAUAGAUAACAACAAAGCCUCACGUGCCAACAUGAGGAUCACCCAUGUAGAAGGCAGGCCAA [Mod R3 Insanara 4 - Jieux - Exclusion 2] (Eterna round: R97, puzzle: Exclusion 2)	–	–	–	14.7	–	17.2
GCGCACCUACCAAAAGGUAGGCCAACAUGAGGAUCACCCAUGUAGGAUAUCGAUUGCUUUGCAGUCGAGAAGGACAUGAUGCGC [JL ENG3 3.80 Mod 8] (Eterna round: R96, puzzle: Exclusion NG 3)	–	–	–	33.8	15.4	21.6
UCAUGUCCUGAGGAUAUGUAGCGGAUAAACGCAACAGAAGGCAGGACAUGAGGAUCACCCAUGUGUGCCUUCCA [Exclusion 6 Mod of JL of Mod of Letion by ViennaUCT] (Eterna round: R97, puzzle: Exclusion 6)	–	–	–	8.14	–	113
AUAAAUCAUGUAGGAUAUGCGUGGCGAAGCUAUGCAGAAGGACAUGAGGAUCACCCAUGUUCUAGCGUCUGAGUACAGAUGCAA [Mat - Exclusion NG 1 - Mod of JL - D3] (Eterna round: R96, puzzle: Exclusion NG 1)	–	–	–	72.5	18.5	22.9
CAAAAGGUAGGAUAUACGAAAAAAAAGGGUAGAAAAAAAACACAUGAGGAUCACCCAUGUAGAAGGACCAAAAU [salish99_ex2_r3_054] (puzzle: Exclusion 2)	24.3	90.9	22.5	–	–	–
AUACACUAGCGAGGAUAUUGGAAAGGAAGUGUACAAGAAGGCGCCCGUGGAAGGGUGAAACAUGAGGAUCACCCAUGUGAAUAA [PowerStrip EXNG 1.29] (Eterna round: R96, puzzle: Exclusion NG 1)	–	–	–	151	96.2	66.1
UAAUAAAGUGUGAGGAUAUGCUGGUCCAUAGAUCAGCAGAAGGCACAUGAGGAUCACCCAUGUAAUAUAUAAAU [Mat - Exclusion 4 - JL Mod - D57] (puzzle: Brourd's mod of Exclusion 4)	27.5	199	24.5	–	–	–
ACAUGAGGAUCACCCAUGUAAACAUAAUGGCUCAUGUAGAGUCAGGAUAUGCGUGGCGAACACGCGCAGAAGGGACAAGACUGG [Deportation 24 - Jieux - Exclusion NG 3] (Eterna round: R96, puzzle: Exclusion NG 3)	–	–	–	32.4	21	31
GUGGUACAUGAGGAUCACCCAUGUAAGGAUAUAGUCGUCUGGUGGUCGCGGGUGGUGGCUAGAAGGUGCGUGCG [-19.6, -16.8 kcal, A 19%] (Eterna round: R97, puzzle: Exclusion 1)	–	–	–	93.9	–	125
